According to publication PMC10243135:
Read-outs that look alike come from different tables or passages of the source.

Key:
[1] = target: T1, WhiA;WhiB;sigmaA (sigma HrdB);RbpA;RNA polymerase core (alpha2 beta beta' omega) (Streptomyces venezuelae;Streptomyces …, UniProt F2RGQ4;F2R611;F2R7X6;F2RBH1;F2RJV9;F2RIS5;F2RIS6;F2RCK7 …, ||||); experiment: cryo-EM
[2] = target: T1, WhiA;WhiB;sigmaA (sigma HrdB);RbpA;RNA …; experiment: cryo-EM; remark: listed apart in the source

B1: sepX-2 promoter (cryo-EM, RPo-2) (dsDNA)
DNA 1: GTGATATCAGCCAGATCGTGCGACACACCGGGCCAATTGGCTTGACACC
DNA 2: GGTGTCAAGCCAATTGGCCCGGTGTGTCGCACGATCTGGCTGATATCAC
- binding result [1]: binds

B2: sepX promoter (cryo-EM, RPo) (dsDNA)
DNA 1: GTGATATCAGCCAGATCGTGCGACACACCGGGCCAATTGGCCGATGCCGTCCCGCGAACCCCTCTACCGTGTGAGGCGTGAGCAGCAGCGGCCTCATCGC
DNA 2: GCGATGAGGCCGCTGCTGCTCACGCCTCACACGGTAGAGGGGTTCGCGGGACGGCATCGGCCAATTGGCCCGGTGTGTCGCACGATCTGGCTGATATCAC
- binding result [2]: binds
